Reference: patent US20110104152A1 (Genentech, published 2011)

Key:
[1] = biological target: T1, FGFR4-Fc (recombinant polypeptide comprising a human FGFR4 extracellular domain fused to a human IgG1 Fc … (human, UniProt P22455 22-369)); assay: ELISA, FGFR-Fc captured by anti-human IgG-Fc antibody, 2 µg/mL heparin, no Klotho-beta
T1 construct: extracellular domain; Bought reagent; also called FGFR4 fused to Fc fragment; catalog no; 685-FR-050, R&D Systems; not shown: human IgG1 Fc fragment
T1 sequence (looked up): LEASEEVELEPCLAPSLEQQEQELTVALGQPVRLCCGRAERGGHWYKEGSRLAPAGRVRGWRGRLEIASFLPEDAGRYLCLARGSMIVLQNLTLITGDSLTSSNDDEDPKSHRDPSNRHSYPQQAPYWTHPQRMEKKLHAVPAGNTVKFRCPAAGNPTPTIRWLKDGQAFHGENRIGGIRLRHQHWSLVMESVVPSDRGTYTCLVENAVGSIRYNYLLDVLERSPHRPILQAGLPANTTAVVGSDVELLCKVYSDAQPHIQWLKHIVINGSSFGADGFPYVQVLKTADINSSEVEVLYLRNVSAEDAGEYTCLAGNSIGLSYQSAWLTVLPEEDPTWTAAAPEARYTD
Procedure: Monoclonal antibodies specific for human IgG-Fc fragment (Jackson ImmunoResearch, West Grove, Pa., USA) were immobilized in the wells of Maxisorp™ flat-bottom 96-well plates (Nunc, Thermo Fisher Scientific, Rochester, N.Y.) by overnight incubation with 100 μl per well of 2 μg/ml antibody solution. Each well was then incubated with either 1 μg/ml of FGFR4—Fc (a recombinant polypeptide comprising a human FGFR4 extracellular domain fused to a human IgG₁ Fc fragment; catalog no. 685-FR-050, R&D Systems, Inc., Minneapolis, Minn.) or 1 μg/ml FGFR1c-Fc (a recombinant polypeptide comprising a human FGFR1c extracellular domain fused to a human IgG₁ Fc fragment; catalog no. 658-FR-050, R&D Systems).
The surface-immobilized FGFR4-Fc or FGFR1c-Fc polypeptides were incubated for 1 hr with native human FGF19-Flag polypeptide with a C-terminal epitope tag (See FGF19-Flag in Table 10, SEQ ID NO:237) at concentrations of 1 μg/mL, 0.4 μg/mL, 0.16 μg/mL, 0.064 μg/mL, 0.0256 μg/mL, 0.004096 μg/mL or 0.0016384 μg/mL, each with 2 μg/mL heparin, to allow binding of the FGF19 polypeptide to the receptor domain. […]

[2] = biological target: human FGFR4 polypeptide expressed in transfected rat L6 myoblasts (human, UniProt P22455 22-802); assay: cell-based or functional assay
[3] = biological target: human FGFR1c polypeptide expressed in transfected rat L6 myoblasts (human, UniProt P11362 22-822); assay: cell-based or functional assay
Chain of human FGFR1c polypeptide expressed in transfected rat L6 myoblasts (P11362 22-822): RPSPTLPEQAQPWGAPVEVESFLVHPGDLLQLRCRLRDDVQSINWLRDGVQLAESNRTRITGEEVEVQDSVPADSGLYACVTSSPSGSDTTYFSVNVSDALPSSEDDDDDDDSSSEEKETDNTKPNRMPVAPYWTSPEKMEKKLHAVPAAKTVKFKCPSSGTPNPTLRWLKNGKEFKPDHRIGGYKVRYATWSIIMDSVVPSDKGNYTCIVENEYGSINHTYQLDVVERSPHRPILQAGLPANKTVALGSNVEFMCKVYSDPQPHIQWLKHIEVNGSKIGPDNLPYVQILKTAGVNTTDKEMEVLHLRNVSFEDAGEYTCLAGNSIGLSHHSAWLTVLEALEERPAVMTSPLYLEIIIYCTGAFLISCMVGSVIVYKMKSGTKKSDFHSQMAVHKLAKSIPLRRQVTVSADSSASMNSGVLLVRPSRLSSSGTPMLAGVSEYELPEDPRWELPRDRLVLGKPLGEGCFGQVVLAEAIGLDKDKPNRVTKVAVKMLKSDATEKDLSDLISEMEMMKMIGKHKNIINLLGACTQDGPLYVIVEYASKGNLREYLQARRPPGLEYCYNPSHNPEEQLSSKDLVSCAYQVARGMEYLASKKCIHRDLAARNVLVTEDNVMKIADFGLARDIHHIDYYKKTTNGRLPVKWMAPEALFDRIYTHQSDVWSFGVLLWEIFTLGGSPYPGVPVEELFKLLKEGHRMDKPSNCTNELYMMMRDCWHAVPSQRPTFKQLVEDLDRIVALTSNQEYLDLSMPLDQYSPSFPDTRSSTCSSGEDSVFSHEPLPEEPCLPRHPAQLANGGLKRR

B1: chimeric FGF19 polypeptide cFGF21/19-2/Flag (ligand)
chain: HPIPDSSPLLQFGGQVRQRYLYTSGPHGLSSCFLRIRADGVVDCARGQSAHSLLEIKAVALRTVAIKGVHSVRYLCMGADGKMQGLLQYSEEDCAFEEEIRPDGYNVYRSEKHRLPVSLSSAKQRQLYKNRGFLPLSHFLPMLPMVPEEPEDLRGHLESDMFSSPLETDSMDPFGLVTGLEAVRSPSFEKDYKDDDDK
notes: also called chimeric FGF19-Flag polypeptide; FGF19v
For B1, the binding result [1] was “no binding (tested: 1 µg/mL (highest concentration tested))”, the “EC50 of dose-dependent activation of luciferase (GAL4-Elk1 reporter), L6 cells with FGFR4 and KLB” value [2] was 0.269 µg/mL and the “EC50 of dose-dependent activation of luciferase (GAL4-Elk1 reporter), L6 cells with KLB and FGFR1c” value [3] was 0.0227 µg/mL.
